For orientation: IC50 means the concentration that inhibits the measured activity by half. The Ki is the dissociation constant of the complex between target and ligand, obtained from inhibition or displacement.

The target of experiment [1] is chicken bombesin receptor subtype-3 (chicken (Gallus gallus)). As to the kind of experiment: radioligand binding; displacement of 50 pM [125I]-Tyr42-GRP by unlabeled peptide on disaggregated transfected HEK293 cells; 1 h at 21°C; 24.5 mM HEPES pH 7.4, 98 mM NaCl; bound tracer separated by centrifugation.
Experiment [2] deals with aardvark bombesin receptor subtype-3 (aardvark (Orycteropus afer)). The experiment is described as above.
Sequence of aardvark bombesin receptor subtype-3 (aardvark (Orycteropus afer)) (P32247 other isoform, or with tags, fused parts or gaps): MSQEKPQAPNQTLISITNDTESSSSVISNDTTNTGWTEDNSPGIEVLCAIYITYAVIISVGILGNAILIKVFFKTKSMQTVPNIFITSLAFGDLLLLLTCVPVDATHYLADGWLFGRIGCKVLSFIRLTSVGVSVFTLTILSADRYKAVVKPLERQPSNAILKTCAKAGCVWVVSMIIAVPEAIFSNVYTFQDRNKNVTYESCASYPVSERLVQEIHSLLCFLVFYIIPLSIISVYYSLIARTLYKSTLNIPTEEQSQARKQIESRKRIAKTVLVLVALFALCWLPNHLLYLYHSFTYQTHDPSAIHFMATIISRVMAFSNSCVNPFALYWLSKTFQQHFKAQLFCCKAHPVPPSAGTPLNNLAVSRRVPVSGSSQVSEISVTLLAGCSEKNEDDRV
Experiment [3] concerns the target spotted gar bombesin receptor subtype-3 (spotted gar (Lepisosteus oculatus)). Described as above.
The target in experiment [4] is turtle bombesin receptor subtype-3 (turtle (Chrysemys picta)). The description is as above.
Sequence of turtle bombesin receptor subtype-3 (turtle (Chrysemys picta)) (main, as listed by the source): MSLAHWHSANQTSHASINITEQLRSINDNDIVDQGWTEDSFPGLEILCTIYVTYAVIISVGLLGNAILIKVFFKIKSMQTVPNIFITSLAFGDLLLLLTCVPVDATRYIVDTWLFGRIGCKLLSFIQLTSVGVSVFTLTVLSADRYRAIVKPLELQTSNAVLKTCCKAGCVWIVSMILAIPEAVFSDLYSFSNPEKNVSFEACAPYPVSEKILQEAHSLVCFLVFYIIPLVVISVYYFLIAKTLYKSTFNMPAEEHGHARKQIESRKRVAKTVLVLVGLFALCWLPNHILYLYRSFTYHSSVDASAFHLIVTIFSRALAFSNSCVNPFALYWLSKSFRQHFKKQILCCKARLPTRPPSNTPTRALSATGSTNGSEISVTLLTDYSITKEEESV
Experiment [5] has as its target chicken bombesin receptor subtype-3 (chicken (Gallus gallus)). As to the kind of experiment: radioligand binding; displacement of 50 pM [125I]-Tyr-NMB by unlabeled peptide on disaggregated transfected HEK293 cells; 1 h at 21°C; 24.5 mM HEPES pH 7.4, 98 mM NaCl; bound tracer separated by centrifugation.
Experiment [6] has as its target spotted gar bombesin receptor subtype-3 (spotted gar (Lepisosteus oculatus)). The description is as above.
For experiment [7], the target named is turtle bombesin receptor subtype-3 (turtle (Chrysemys picta)). Described as above.

Where no end group is shown, it is not given here. Some results are limits rather than exact numbers.

Sequence of spotted gar bombesin receptor subtype-3 (spotted gar (Lepisosteus oculatus)) (main, as listed by the source): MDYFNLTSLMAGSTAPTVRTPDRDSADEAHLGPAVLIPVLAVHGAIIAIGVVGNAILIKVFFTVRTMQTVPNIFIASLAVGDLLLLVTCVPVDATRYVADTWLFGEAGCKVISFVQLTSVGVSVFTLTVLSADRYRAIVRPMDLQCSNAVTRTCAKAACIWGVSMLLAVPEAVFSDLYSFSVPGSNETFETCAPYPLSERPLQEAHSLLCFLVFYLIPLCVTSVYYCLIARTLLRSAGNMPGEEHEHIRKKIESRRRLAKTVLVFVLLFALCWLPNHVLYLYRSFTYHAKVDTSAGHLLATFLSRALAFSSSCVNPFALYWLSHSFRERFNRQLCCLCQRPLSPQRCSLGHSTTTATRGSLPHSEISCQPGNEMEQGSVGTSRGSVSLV

Consider APLQPGGSPALTKIYPRGSHWAVGHLM (ends and bridges not checked) [gastrin-releasing peptide, unlabeled ligand peptide of the radioligand binding assays], for which the IC50 in experiment [1] came to 0.15 nM; in experiment [3], 0.17 nM; in experiment [4], 0.14 nM; in experiment [5], 0.18 nM; in experiment [6], 0.54 nM; in experiment [7], 0.28 nM. In experiment [2], this molecule yielded a Ki of more than 1000 nM.

The values above are taken from article PMC6422423, “Constitutively active BRS3 is a genuinely orphan GPCR in placental mammals” (PLoS Biology, 2019).
